The record followed here is FireProtDB (doi:10.1074/jbc.m705677200).

For the data set the following is noted: Helicobacter pylori (strain ATCC 700392 / 26695), 25.2 °C, Urea, whole UniProt chain shown.
[1] abbreviates: pH 2, CD, Sodium phosphate 23 mM.
Setting [2] is: pH 2, Fluorescence, Sodium phosphate 23 mM.
Setting [3] is: pH 5, Fluorescence, Sodium acetate 16 mM.

B1: Flavodoxin wild type, O25776 (protein)
chain: MGKIGIFFGTDSGNAEAIAEKISKAIGNAEVVDVAKASKEQFNSFTKVILVAPTAGAGDLQTDWEDFLGTLEASDFATKTIGLVGLGDQDTYSETFAEGIFHIYEKAKAGKVVGQTPTDGYHFEASKAVEGGKFVGLVIDEDNQDDLTDERISKWVEQVKGSFA
As for B1, the denaturant m value reads like this: under setting [1], 1.28 kcal/mol/M; under setting [2], 1.35 kcal/mol/M; (pH 5, CD, Sodium acetate 16 mM) 2.24 kcal/mol/M; under setting [3], 2.32 kcal/mol/M; (pH 7, CD, MOPS 30 mM) 2.11 kcal/mol/M; (pH 7, Fluorescence, MOPS 30 mM) 2.18 kcal/mol/M. The denaturant m value reads like this: (pH 9, CD, CHES 35 mM) 2.19 kcal/mol/M; (pH 9, Fluorescence, CHES 35 mM) 2.03 kcal/mol/M. The “denaturant midpoint (higher = more stable)” value runs as follows: under setting [1], 0.89 M; under setting [2], 0.84 M; (pH 5, CD, Sodium acetate 16 mM) 4.1 M; under setting [3], 4.04 M; (pH 7, CD, MOPS 30 mM) 2.94 M; (pH 7, Fluorescence, MOPS 30 mM) 3.01 M. Further, the “denaturant midpoint (higher = more stable)” value was determined as 2.16 M (pH 9, CD, CHES 35 mM) and 2.21 M (pH 9, Fluorescence, CHES 35 mM). Besides, the unfolding free energy was 1.14 kcal/mol under setting [1]; 1.13 kcal/mol under setting [2]; 9.2 kcal/mol (pH 5, CD, Sodium acetate 16 mM); 9.37 kcal/mol under setting [3]; 6.2 kcal/mol (pH 7, CD, MOPS 30 mM); 6.56 kcal/mol (pH 7, Fluorescence, MOPS 30 mM). For the same protein, the unfolding free energy (pH 9, CD, CHES 35 mM) worked out at 4.73 kcal/mol and the unfolding free energy (pH 9, Fluorescence, CHES 35 mM) came to 4.5 kcal/mol.
